Test results taken from the nanobody polyreactivity screen of Harvey et al. (2022).

Assay: yeast display, Sf9 membrane polyspecificity reagent, FACS + sequencing; frameworks hold sequencing errors
Procedure, shortened: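 After 36–48 hours of galactose induction, yeast (Saccharomyces cerevisiae BJ5465) displaying a synthetic nanobody library were stained at 4 °C for 1 hour with 10% biotinylated, detergent-solubilized Sf9 membrane reagent. Streptavidin microbeads enriched the stained cells before FACS sorting into low and high (top ~1%) gates on anti-HA and streptavidin fluorescence. Each clone's polyreactivity label reflects its gate of origin.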

| Sequence | polyreactivity (PSR sort gate) |
| --- | --- |
| QVQLVESGGGLVQAGGSLRLSCAASGRTFLNYAMGWYRQAPGKEREFVAAITWRVGTTYYADSVKGRFTISRDNAKNTVYLQMNSLKPEDTAVYYCAARRSVGGYGYWGQGTQVTVSS | high polyreactivity |
| QVQLVESGGGLVQAGGSLRLSCAASGRTFLPNAMGWYRQAPGKDRELVAVITSGGSTNYADSVKGRFTISRDNAKNTVYLQMNSLKPEDTAVYYCAARRWSSSQGHWGKSAGYGYWGQGTQVTVSS | low polyreactivity |
| QVQLVESGGGLVQAGGSLRLSCAASGRTFLPNAMGWYRQAPGKERELVAVITSGGSTNYADSVKGRFTISRDNAKNTVYLQMKSLKPEDTAVYYCAARRWSSSQGHWGKSAGYGYWGQGTQVTVSS | low polyreactivity |
| QVQLVESGGGLVQAGGSLRLSCAASGRTFLPNAMGWYRQAPGKERELVAVITSGGSTNYADSVKGRFTISRDNAKNTVYLQMNSLKPEDTAVYYCAADWWRVEMEYWGQGTQVTVSS | low polyreactivity |
| QVQLVESGGGLVQAGGSLRLSCAASGRTFLPNAMGWYRQAPGKERELVAVITSGGSTNYADSVKGRFTISRDNAKNTVYLQMNSLKPEDTAVYYCAARRWSSSQGHWGKSAGYGYLGQGTQVTVSS | low polyreactivity |
| QVQLVESGGGLVQAGGSLRLSCAASGRTFLPNAMGWYRQAPGKERELVAVITSGGSTNYADSVKGRFTISRDNAKNTVYLQMNSLKPEDTAVYYCAARRWSSSQGHWGKSAGYGYWGQGTQVTVSS | low polyreactivity |
| QVQLVESGGGLVQAGGSLRLSCAASGRTFLPYAMGWYRQAPGKEWELVAAIDSSGGSTYYADSVKGRFTISRDNAKNTVYLQMNSLKPEDTAVYYCAADLYSSYYLYDSWGQGTQVTVSS | low polyreactivity |
| QVQLVESGGGLVQAGGSLRLSCAASGRTFLRNTMGWYRQAPGKERELVAAISRSGATTYYADSVKGRFTISRDNAKNTVYLQMNSLKPADTAVYYCAALGQGRTSATSFVDYEYWGQGTQVTVSS | high polyreactivity |
| QVQLVESGGGLVQAGGSLRLSCAASGRTFLRYAMGWYRQAPGKERELVAAISGSGGSTYYADSVKGRFTISRDNAKNTVYLQMNSLKPEDTAVYYCATRFWVSFKAREYWGQGTQVTVSS | high polyreactivity |
| QVQLVESGGGLVQAGGSLRLSCAASGRTFLSYAMGWSRQAPVTERELVATITRRGGSTYYADSVKGRFTISRDNAKNTVYLQMNSLKPEDTAVSYCAAYYRQYSYSEFGYWGQGTQVTVSS | high polyreactivity |
| QVQLVESGGGLVQAGGSLRLSCAASGRTFLSYMGWYRQAPGKERELVAISRYGTSTYYADSVKGRFTISRDNAKNTVYLQMNSLKPEDTAVFYCAAEVLRDGWWGYYYWGQGTQVTVSS | high polyreactivity |
| QVQLVESGGGLVQAGGSLRLSCAASGRTFLTNAMGWYRQAPGKERELVAAITSSGGNTYYADSVKGRFTISRDNAKNTVYLQMNSLKPEDTAVYYCAAPGYVWYGGRWVYRYYYWGQGTQVTVSS | high polyreactivity |
| QVQLVESGGGLVQAGGSLRLSCAASGRTFLTNTMGWYRQAPGKERELVAAISSGGSTKYADSVKGRFTISRDNAKNTVYLQMNSLKPEDTAVYYCAATGWRYGYKYYYWGQGTQVNVSS | high polyreactivity |
| QVQLVESGGGLVQAGGSLRLSCAASGRTFLVFAMGWYRQAPGKERELVAAITRDDNTNYADSVKGRFTISRDNAKNTVYLQMNSLKPEDTAVDYCAADALVYRLGNYYFIFDYWGQGTEVTVSS | low polyreactivity |
| QVQLVESGGGLVQAGGSLRLSCAASGRTFLVNAMGWYRQAPGKEREFVAAITSRSSGSTYYADSVTGRFTISRDKAKNTVYFQLNSQKPEDTAVYYCAARGHLRYESDYWGQGTQVTVSS | high polyreactivity |
| QVQLVESGGGLVQAGGSLRLSCAASGRTFLVNAMGWYRQAPGKERELVAAITANGGNTYYADSVKGRFTISRDNAKNTVYLQMNSLKPEDTAVYYCAKLSHRGQSTGVDYWGQGTQVTVSS | low polyreactivity |
| QVQLVESGGGLVQAGGSLRLSCAASGRTFLVYAMGWYRQAPGKERDLVAAITGSGTSTYYADSVKRRFTISRDNGKNTVYLQMNSLKAEDTAVYYCAAEVRLGTYGYDYDYWGQGTQVTVSS | high polyreactivity |
| QVQLVESGGGLVQAGGSLRLSCAASGRTFLVYAMGWYRQAPGKERELVAAISFSDGITYYADSVKGRFTISRDNAKNTVYIQMNSLKPEDTAVYYCATEILDYYYGSEYDYWGQGTQVTVSS | high polyreactivity |
| QVQLVESGGGLVQAGGSLRLSCAASGRTFLWYAMGWYRQAPGKEREFVAAITKSSGSTYYADSVKGRFTISRDNAKNTVFLQMNSLKPEDNAVYYCAKRPFSTRYDYWGQVTQVTVSS | high polyreactivity |
| QVQLVESGGGLVQAGGSLRLSCAASGRTFLYNAMGWYRQAPGKERELVAAISWNGGSTYYADSVKGRFTISRDNAKNTVYLQMNSLKPEDTAVYYCNAVYRPRVGRRFPTGYDYWGQGTQVTVSS | high polyreactivity |
| QVQLVESGGGLVQAGGSLRLSCAASGRTFNAYAMGWYRHAPGKERELVAAISSGGSTYYADSVKGRFTISRDNAKNTVYLLMNSLKPEDTAVYYCNKVYGWRQFDYWGQGTQVTVSS | high polyreactivity |
| QVQLVESGGGLVQAGGSLRLSCAASGRTFNAYTLGWYTQAPGTERELVAAITSSGGNTYNADSVKGRFTISRDNAKNTVYLQMNSLKPEETAVYYCNTVYLYGTHDYWGQGTQVTVSS | low polyreactivity |

| Sequence | polyreactivity (PSR sort gate) |
| --- | --- |
| QVQLVESGGGLVQAGGSLRLSCAASGRTFNAYTMGWYRQAPGKERELVAAITRSGARTYYADSVKGRFTISRDNAKNTVYLQMNSLKPEDTAVYYCNKAAFNYYLYGYWGQGTQVTVSS | high polyreactivity |
| QVQLVESGGGLVQAGGSLRLSCAASGRTFNEYAMGWYRQAPGKERELVAAISSSGDSTYYADSVKGRFTISRDNAKNTVYLQMNSLKPEDTAVYYCAAQVVVWYPYVYFPGYDYWGQGTQVTVSS | low polyreactivity |
| QVQLVESGGGLVQAGGSLRLSCAASGRTFNFNTMGWYRQSPGKERELVASITSGGSTNYADSVKGRFTISRDNAKNTVYIQMNILKPEDTAVYYFAVTVSGPYAYDYWGQGTQVTVSS | low polyreactivity |
| QVQLVESGGGLVQAGGSLRLSCAASGRTFNGNAMGWYRQAPGKERELVAAISWSGGSTYYADSVKGRFTISRDNAKNTVYLQMNSLKPEDTAVYYCNADYFAWDLMYYWGQGTQVTVSS | low polyreactivity |
| QVQLVESGGGLVQAGGSLRLSCAASGRTFNGYAMGWSRQAPGKERELVAALTGSVGSTYYADSVKGRFTISRDNAKNPGELQLNSLKPDDTAVYYCATRWKATRARYDYWGQGTQVTVTS | high polyreactivity |
| QVQLVESGGGLVQAGGSLRLSCAASGRTFNGYAMGWYRQAPGKEREFVAAITSRGGSTYYADSVKGRFTISRDNAKNTVYLQMNSLKPEDTAVYYCAARAYTALSWRRYGYWGQGTQVTVSS | high polyreactivity |
| QVQLVESGGGLVQAGGSLRLSCAASGRTFNHYAMGWYRQAPGKERELVPGITISGGSTYYADSVKGRFTISRDNAKNTVYLQMNSLKPEDTAVYYCNAVYDYYRQSNWTMDYWGQGTQVTVSS | low polyreactivity |
| QVQLVESGGGLVQAGGSLRLSCAASGRTFNKYAMGWYRQAPGKERELVAAINTSGGSTYYADSVKGRFTISRDNAKNTVYLQMNSLKPEDTAVYYCAAQSRSVYGRSYGYWGQGTQVTVSS | high polyreactivity |
| QVQLVESGGGLVQAGGSLRLSCAASGRTFNLNAMGWYRQAPGKEREFVAAISNSGVRTYYADSVKGRFTISRDNAKNTVYLQMNSLKPVDTAVYYCARTYQVGDSIDDYWGQGTQVTVSS | low polyreactivity |
| QVQLVESGGGLVQAGGSLRLSCAASGRTFNLYAMGWSRQAPGKERELVARITSGGSTNYADSEKGRFTISRDNAKNTVYLQMNSLKPEDTAVYYCAASSYNRGDYWGQGTQVTVSS | high polyreactivity |
| QVQLVESGGGLVQAGGSLRLSCAASGRTFNPNAMGWYRQAPGKERELVATISWSSDSTYYADSVKGRFTISRDNAKNTVYLQMNSLKPEDTAVYYCNAQLSYHWYSPGYDYWGQGTQVTVSS | low polyreactivity |
| QVQLVESGGGLVQAGGSLRLSCAASGRTFNSTAMGWYRQAPGKERELVAAITRSGGSTYYADSVKGRFTISRDYAKNTVYLQMISQKPEDTAVNYCITTRWTQRTSFDYWGQGTQVTVSS | low polyreactivity |
| QVQLVESGGGLVQAGGSLRLSCAASGRTFNSYAMGWYRQAPGKERELVAAISWNTGSTYYADSVKGRFTISRDNAKNTVYLQMNSLKPEDTAVYYCAAEGELYTAFGTLSFDYWGHGTQVTVSS | high polyreactivity |
| QVQLVESGGGLVQAGGSLRLSCAASGRTFNSYAMGWYRQSPGKERELVADITSSGGSTYYADSVKGRFTISRDNAKNTVFLQMNSLIPEDTALYYCAADGYTRLPTYLRVNHRSLDYWGQGTQVTVSS | low polyreactivity |
| QVQLVESGGGLVQAGGSLRLSCAASGRTFNTNAMGWYRQAPGKERELVAAISGGGSTYADSVKGRFTISRDNAKNTVYLQMNSLKPEDTAVYYCKAYPPYLYATYDYWGQGTQVTVSS | low polyreactivity |
| QVQLVESGGGLVQAGGSLRLSCAASGRTFNVYAMGWYRQAPGKERELVAAISKSGGSTYYADSVKGRFTISRDNAKNTVYLQMTSLKPEDTAVYYCNRYRFVRQVRGGGLPYDYWGQGTQVTVSS | high polyreactivity |
| QVQLVESGGGLVQAGGSLRLSCAASGRTFNVYAMGWYRQAPGKERELVAVITNGGSTNYADSVKGRFTISRDNAKNTVYLQMNSLKPEDTAVYYCAADYYASLTREDRDDYWGQGTQVTVSS | low polyreactivity |
| QVQLVESGGGLVQAGGSLRLSCAASGRTFNWYTMGWYRQAPGKERELVARINGRGGSTYYADSVKGRFTISRDNAKNTVYLQMNSLKPEDTAVYYCAADLHKLARYDYWGQGTQVTVSS | high polyreactivity |
| QVQLVESGGGLVQAGGSLRLSCAASGRTFPAYAMGWYRQAPGKERELVAAISYSGGRTRYADSVKGRFTISRDNAKNTVYLQMNSLKPEDTAVYDCNRVIPTQSLRDYYWGQGTQVTVSS | high polyreactivity |
| QVQLVESGGGLVQAGGSLRLSCAASGRTFPAYAMGWYRQAPRKERELVARISYSGGNTYYADSVKGRFTISRDNAKNTVYLQMNSLKPEDTAVYYCAATRSHYPYRSGGDYWGQGTQVTVSS | low polyreactivity |
| QVQLVESGGGLVQAGGSLRLSCAASGRTFPFNAMGWYRQAPGKERELVAGISSGGRTNYADSVKGRFTISRDNAKNTVYLQMNSMQPEDTAVYYCAARYQPSRAARWTLDYWGQGTQVTVSS | high polyreactivity |
